# Reference: patent publication US20130266574A1 (Regeneron, published 2013)
# T1: mANGPTL4-His [R26-S410 of mANGPTL4 (SEQ ID NO: 478) fused with an AS linker to a C-terminal 6-histidine tag] (mouse, UniProt Q9Z1P8 26-410)
# T1 construct: also called mANGPTL4(26-410)-His
# T1 sequence: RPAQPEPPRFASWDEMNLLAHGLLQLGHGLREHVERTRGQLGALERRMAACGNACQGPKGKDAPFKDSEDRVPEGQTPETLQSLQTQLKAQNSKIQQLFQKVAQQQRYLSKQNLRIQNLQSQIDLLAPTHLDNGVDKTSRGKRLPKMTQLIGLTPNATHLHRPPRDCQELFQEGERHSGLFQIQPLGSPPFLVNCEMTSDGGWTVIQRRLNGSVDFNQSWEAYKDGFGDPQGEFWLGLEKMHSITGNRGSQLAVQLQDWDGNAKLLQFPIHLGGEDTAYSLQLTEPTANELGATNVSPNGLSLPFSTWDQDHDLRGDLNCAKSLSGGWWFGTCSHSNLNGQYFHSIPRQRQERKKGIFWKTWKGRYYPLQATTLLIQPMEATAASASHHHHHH
# Biological target: T1, mANGPTL4-His [R26-S410 of mANGPTL4 (SEQ …)
# Assay: SPR (Biacore), antigen amine coupled
# Procedure: Possible cross-reactivity of the anti-hANGPTL4 antibodies to related proteins, i.e., hANGPTL3, human angiopoietin-like protein 5 (hANGPTL5) and mouse ANGPTL4 (mANGPTL4), was tested for the selected antibodies, i.e., H1H268P and H1H284P, using the BIACORE™ system. Briefly, anti-hANGPTL4 antibodies as well as negative controls, i.e., two monoclonal antibodies (Control a and Control b) that are non-binders to any ANGPTL proteins, were injected at 3.125 μg/mL-50 μg/mL over amine coupled chip surfaces of hANGPTL3-His (R&D Systems, cat #3829-AN) at 5228 RU, hANGPTL4-His (R&D Systems, cat #4487-AN) at 6247 RU, hANGPTL5-His (Abnova Corp., cat #H00253935-P01) at 5265 RU, and mANGPTL4-His [R26-S410 of mANGPTL4 (SEQ ID NO: 478) fused with an AS linker to a C-terminal 6-histidine tag] at 5233 RU, respectively. A polyclonal antibody specific for hANGPTL3 (R&D System, cat #BAF3485) was also tested.
binder,measurement,value
"H1H284P (antibody, V domains shown, also called entire H1H284 mAb; Full mAb) VH: QVQLVESGGGVVQPGRSLRLSCAASGFTFSSYGMHWVRQAPGKGLEWMAVISFDGGNKNNADSVKGRFTISRDNSKNTLYLQMNSLRAEDTAVYYCAKEGDRSGHPYFYYYGLDVWGQGTTVTVS VL: DIQLTQSPSFLSASVGDRVTITCWASQGISSYLAWYQQKPGKAPKLLIYAASTLQSGVPSRFSGSGSETEFTLTISSLQPEDFATYYCQQLHSYPLTFGGGTKVEIK",binding result,no binding (tested: 3.125 µg/mL-50 µg/mL)
